Positions count from the first letter of the chain named.

Experiment [1] addresses cyno GITR (cGITR) (cynomolgus monkey). The experiment is described as follows: Biacore. On the technique in general: Surface plasmon resonance follows binding to a sensor surface in real time, without labels.
Another experiment concerns the target T1, FAS.
T1 construct: not shown: His tag, implied by the HisGrab nickel plate; The construct's exact limits are also wanting
T1 chain: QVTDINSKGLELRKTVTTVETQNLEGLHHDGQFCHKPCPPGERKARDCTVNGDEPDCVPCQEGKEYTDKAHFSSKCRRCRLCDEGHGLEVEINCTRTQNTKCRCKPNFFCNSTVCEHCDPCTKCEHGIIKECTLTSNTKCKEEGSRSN
Description: specificity ELISA on bacterial lysates with TNFRSF members, HisGrab nickel plate. As to the method:
For the specificity ELISA, a crude cell lysate was made from bacteria expressing members of the TNFRSF family. To prevent nonspecific binding to the plate 50 μL of 5% BSA was added per mL of bacterial lysate. […] The plate was then rinsed three times with PBST, then MAB was diluted to 0.5 μg/mL in 10% FBS in PBS and 100 μL was added to each well. The plate was incubated for 1 hour at room temperature and then rinsed three times with PBST. Anti-human kappa antibody (Sigma #A7164) conjugated to HRP was diluted 1:5000 in 1:1 PBST: 10% FBS in PBS and 100 μL added to each well. The plate was incubated for 1 hour at room temperature, and then washed three times with PBST. 100 μL of SureBlue TMB substrate was added to each well and the plate was incubated for about 10 min at room temperature before stopping the reaction with 100 μL/well of 2N H₂SO₄.
For orientation: In an ELISA, binding on a coated surface is turned into a signal by an enzyme label.

The target of experiment [2] is cyno GITR (cGITR) (cynomolgus monkey). Description: Biacore. This is another data set of the same source.
The next experiment deals with T2, human GITR on cells (human, UniProt Q9Y5U5 27-241).
T2 construct: also called hGITR; 293 cells stably transfected with human GITR
T2 sequence: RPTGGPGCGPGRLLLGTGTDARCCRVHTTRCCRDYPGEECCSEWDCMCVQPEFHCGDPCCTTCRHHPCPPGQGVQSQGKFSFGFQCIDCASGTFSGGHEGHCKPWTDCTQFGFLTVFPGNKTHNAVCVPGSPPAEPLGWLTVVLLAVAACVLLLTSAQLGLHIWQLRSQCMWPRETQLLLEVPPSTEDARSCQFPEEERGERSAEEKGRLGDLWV
The experiment is described as follows: FACS competition on HEK293 cells stably expressing hGITR: human GITR ligand titrated first, then 4 nM MAB7 as the competitor read out with PE anti-human. As to the method:
The ability of MAB to block ligand binding was assessed using HEK293 NFκB reporter parental cells and hGITR stable cells were used in competition binding assays and FACS analysis. Briefly, harvested cells were plated 1×10⁶ cells per mL, 100 μL per well to a 96 well round bottom FACS plate (Corning), then resuspended in 200 μL of cold FACS buffer (1×PBS+1% FBS-HI+0.1% sodium azide) per well. […] Plates were incubated for 1 hour on ice protected from light, cells washed, then prepared 4 nM isotype control or MAB solutions were prepared and added to appropriate wells at 100 μL per well and plates were incubated for 1 hour on ice protected from light, cells washed, then PE-conjugated goat-anti-human detection antibody (Jackson ImmunoResearch) prepared at 1:100 dilution in FACS buffer was added at 100 μL per well and plates were incubated for 30 minutes on ice protected from light. Cells were washed in FACS buffer then cells were fixed with 100 μL per well of BD CytoFix (BD Biosciences) and incubated for further 15 minutes on ice protected from light.

B1: MAB4 (IgG1 kappa) (antibody, V domains shown)
VH: EVQLVESGGGLVQSGGSLRLSCAASGFSLSSYGVDWVRQAPGKGLEWVGVIWGGGGTYYASSLMGRFTISRDNSKNTLYLQMNSLRAEDTAVYYCAKHAYGHDGGFAMDYWGQGTLVTVSS
VL: EIVMTQSPATLSVSPGERATLSCRASESVSSNVAWYQQRPGQAPRLLIYGASNRATGIPARFSGSGSGTDFTLTISRLEPEDFAVYYCGQSYSYPFTFGQGTKLEIKR
Broadly, the Kd is a measure of binding affinity in units of concentration. A lower Kd goes with tighter binding. As to B1, the “fold lower binding affinity for cyno GITR against human GITR” value in the experiment with cyno GITR (cGITR) [1] is 2 to 3 fold. Also, in the experiment with FAS, the binding result was “no binding (tested: 0.5 µg/mL (not on the sheet))”. In the experiment with cyno GITR (cGITR) [2], this molecule gave a Kd of 1.78 nM.

B2: MAB5 (IgG1 kappa) (antibody, V domains shown)
VH: B1 VH with V48L, A60T
VL: B1 VL
As for B2, the “fold lower binding affinity for cyno GITR against human GITR” value with cyno GITR (cGITR) [1] was 2 to 3 fold. The binding result in the experiment with FAS is “no binding (tested: 0.5 µg/mL (not on the sheet))”. The molecule further displayed an equilibrium dissociation constant (Kd) with cyno GITR (cGITR) [2] of 1.87 nM.

B3: MAB7 (IgG1 kappa) (antibody, V domains shown)
VH: B1 VH with K97R
VL: B1 VL
notes: MAB4 with the glycation site KH changed to RH
Take B3: the Kd with cyno GITR (cGITR) [2] worked out at 3.67 nM. That is a single-digit nanomolar value.

B4: recombinant human GITR ligand (GITR-L) (ligand, UniProt Q9UNG2 52-177, looked up)
chain: ETAKEPCMAKFGPLPSKWQMASSEPPCVNKVSDWKLEILQNGLYLIYGQVAPNANYNDVAPFEVRLYKNKDMIQTLTNKSKIQNVGGTYELHVGDTIDLIFNSEHQVLKNNTYWGIILLANPQFIS
Regarding B4, in the experiment with human GITR on cells, the “IC50 (read off the curve)” value was ~0.2 molar ratio (Human GITR Ligand to MAB7).

The values are drawn from patent publication US20170306038A1 (published 2017).
